Laboratory results reported in PMC8809517, “Cofactor-independent RNA editing by a synthetic S-type PPR protein”.

T1: GFP-9S library array, motif 4 ND N98S;D124V (synthetic construct, N98S;D124V)
T1 chain: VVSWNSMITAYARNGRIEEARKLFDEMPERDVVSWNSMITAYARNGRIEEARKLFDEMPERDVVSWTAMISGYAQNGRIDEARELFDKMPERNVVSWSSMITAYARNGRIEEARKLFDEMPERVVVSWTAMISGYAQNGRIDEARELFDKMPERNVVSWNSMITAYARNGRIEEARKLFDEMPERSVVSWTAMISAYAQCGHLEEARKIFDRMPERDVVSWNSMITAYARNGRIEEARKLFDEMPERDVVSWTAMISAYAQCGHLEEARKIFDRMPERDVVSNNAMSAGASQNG

T2: GFP-9S library array, motif 4 ND N98G;D124A (synthetic construct, N98G;D124A)
T2 chain: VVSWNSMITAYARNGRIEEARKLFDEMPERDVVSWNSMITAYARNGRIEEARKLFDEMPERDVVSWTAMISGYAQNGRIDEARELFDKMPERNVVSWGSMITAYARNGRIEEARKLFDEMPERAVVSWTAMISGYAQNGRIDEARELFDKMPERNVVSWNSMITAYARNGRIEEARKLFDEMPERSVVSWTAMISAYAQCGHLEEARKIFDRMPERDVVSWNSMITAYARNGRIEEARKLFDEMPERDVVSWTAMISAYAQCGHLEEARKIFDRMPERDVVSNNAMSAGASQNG

T3: GFP-9S library array, motif 4 ND N98G;D124P (synthetic construct, N98G;D124P)
T3 chain: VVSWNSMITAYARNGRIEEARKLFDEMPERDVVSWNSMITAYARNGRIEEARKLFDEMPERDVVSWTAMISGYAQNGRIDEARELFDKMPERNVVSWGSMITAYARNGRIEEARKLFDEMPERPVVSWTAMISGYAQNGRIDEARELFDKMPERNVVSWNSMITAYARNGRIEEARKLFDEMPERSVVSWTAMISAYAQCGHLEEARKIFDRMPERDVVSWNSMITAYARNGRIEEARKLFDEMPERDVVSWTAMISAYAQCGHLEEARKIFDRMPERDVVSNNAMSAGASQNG

T4: GFP-9S library array, motif 4 ND (synthetic construct)
T4 chain: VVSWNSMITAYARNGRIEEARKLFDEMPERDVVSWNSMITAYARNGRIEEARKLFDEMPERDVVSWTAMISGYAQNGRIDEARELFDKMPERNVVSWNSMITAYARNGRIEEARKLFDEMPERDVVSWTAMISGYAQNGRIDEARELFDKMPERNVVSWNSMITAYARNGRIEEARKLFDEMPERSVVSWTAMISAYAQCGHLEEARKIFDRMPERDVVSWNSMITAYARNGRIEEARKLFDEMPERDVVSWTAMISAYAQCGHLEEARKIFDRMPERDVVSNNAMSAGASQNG

T5: GFP-9S library array, motif 4 ND N98A;D124C (synthetic construct, N98A;D124C)
T5 chain: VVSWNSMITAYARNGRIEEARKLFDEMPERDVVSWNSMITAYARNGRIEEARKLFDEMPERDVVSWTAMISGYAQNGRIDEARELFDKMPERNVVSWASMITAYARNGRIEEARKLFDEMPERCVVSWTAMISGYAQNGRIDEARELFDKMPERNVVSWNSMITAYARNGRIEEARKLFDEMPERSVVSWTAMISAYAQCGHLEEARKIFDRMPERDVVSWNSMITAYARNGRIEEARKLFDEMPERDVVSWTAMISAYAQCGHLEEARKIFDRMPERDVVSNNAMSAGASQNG


Experiments:
Experiment in all cases: high-throughput RNA pulldown from lysate on Ni-NTA beads; HRP: 50 mM Tris pH 8, 150 mM NaCl, 1 mM beta-mercaptoethanol, 50 ug/ml BSA, 3 ug/ml yeast RNA, 0.5% heparin; ITC and FP: Tris pH 8, 200 mM KCl, 5% glycerol; MST: 50 mM Tris pH 8, 200 mM NaCl, 1 mM DTT, BSA, heparin, 0.05% Tween 20
Conditions in all cases: tags: N-terminal His-eGFP
[1] = biological target: T1, GFP-9S library array, motif 4 ND …
[2] = biological target: T2, GFP-9S library array, motif 4 ND …
[3] = biological target: T3, GFP-9S library array, motif 4 ND …
[4] = biological target: T4, GFP-9S library array, motif 4 ND
[5] = biological target: T5, GFP-9S library array, motif 4 ND …

Row | Binder | Kd ([1]; label: 5' IRDye 800CW) [nM] | Kd ([2]; label: 5' IRDye 800CW) [nM] | Kd ([3]; label: 5' IRDye 800CW) [nM] | Kd ([4]; label: 5' IRDye 800CW) [nM] | Kd ([5]; label: 5' IRDye 800CW) [nM] | Kd ([1]; label: 5' Cy5) [nM] | Kd ([2]; label: 5' Cy5) [nM] | Kd ([3]; label: 5' Cy5) [nM] | Kd ([4]; label: 5' Cy5) [nM] | Kd ([5]; label: 5' Cy5) [nM]
1 | AUUAAACGUGA (ssRNA) [IR-rpoA-A] | 51.2 | 133 | 179 | 86.8 | 163 | – | – | – | – | –
2 | AUUAUACGUGA (ssRNA) [IR-rpoA-U] | 152 | 175 | 128 | 6.27 | 92.2 | – | – | – | – | –
3 | AUUACACGUGA (ssRNA) [Cy5-rpoA] | – | – | – | – | – | 114 | 124 | 85.9 | 19 | 112
4 | AUUAGACGUGA (ssRNA) [Cy5-rpoA-G] | – | – | – | – | – | 74.5 | 101 | 127 | 276 | 73.1
